Target: T1, recombinant mouse CCR5 (MyBioSource) (mouse, UniProt P51682 1-354, limits assumed)
T1 construct: Coated on ELISA plates at 20 nM; also called mrCCR5
Assay: competition ELISA: hNAMPTcif 0-100 nM against 100 nM hrNAMPT(1) on coated recombinant mouse CCR5
Experimental: hrNAMPT competitive binding to mrCCR5: ELISA plates (Medium binding, Greiner Bio-One) were coated with 1% BSA or 20 nM of recombinant mouse CCR5 (MyBioSource) in PBS overnight at 4° C. Then, wells were blocked for 1 h at room temperature with 1% BSA in PBS containing 0.05% Tween-20 (PBS-T). Wells were washed 3 times with PBS-T and further incubated with hNAMPTcif at increasing concentration (0 nM to 100 nM) for 1 h in PBS-T with 0.1% BSA containing 100 nM hrNAMPT (1) (Peprotech). Bound hrNAMPT (1) molecules were detected using a biotinylated antibody for NAMPT and HRP-streptavidin (Human PBEF/Visfatin DuoSet ELISA, R&D Systems). Signals obtained on BSA-coated wells were used to remove non-specific binding for each hrNAMPT concentrations to obtain specific binding values. Specific binding data were fitted by non-linear regression with Prism 7 to obtain the half maximal inhibitory concentration (IC50) of hNAMPTnif using A450nm=A450nmMin+(A450nmMax−A450nmMin)/(1+10\hat{ }(X-LogIC50)).

T1 sequence (P51682 whole entry): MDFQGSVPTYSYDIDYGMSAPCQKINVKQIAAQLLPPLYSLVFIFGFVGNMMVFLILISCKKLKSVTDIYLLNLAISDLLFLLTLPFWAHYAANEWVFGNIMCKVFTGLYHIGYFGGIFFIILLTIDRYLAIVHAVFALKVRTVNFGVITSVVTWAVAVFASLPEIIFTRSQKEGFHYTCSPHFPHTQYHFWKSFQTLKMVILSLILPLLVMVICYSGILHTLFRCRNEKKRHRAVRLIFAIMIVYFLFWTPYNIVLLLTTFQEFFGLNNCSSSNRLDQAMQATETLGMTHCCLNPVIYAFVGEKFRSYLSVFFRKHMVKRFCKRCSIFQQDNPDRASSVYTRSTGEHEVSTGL

- IC50: 21.5 nM
B1: human NAMPT cytokine finger (hNAMPTcif; NAMPT402-491) (ligand)
chain: SYVVTNGLGINVFKDPVADPNKRSKKGRLSLHRTPAGNFVTLEEGKGDLEEYGQDLLHTVFKNGKVTKSYSFDEIRKNAQLNIELEAAHH
notes: also called hNAMPTnif

From patent US20250257332A1 (MONASH UNIVERSITY, published 2025)
